Consider 8 molecules from paper PMC7053999, “ParB spreading on DNA requires cytidine triphosphate in vitro” (eLife, 2020).

In data set [1] the target is T1, Caulobacter ParB (Caulobacter vibrioides, UniProt B8GW30, C297S).
T1 construct: full-length, C-terminal His6 (pET21b), E. coli Rosetta (DE3), dimer
Nature of the data set: BLI, ParB accumulation on closed […] bp parS DNA. The following applies: 1 mM CTP, 1 uM ParB, Mg2+, pH 8.0, 22 °C; legend prints C97S in one place. Type of data set: biochemical.

The target in data set [2] is T2, Caulobacter ParB (Caulobacter vibrioides, UniProt B8GW30, Q35C/C297S).
T2 construct: full-length, C-terminal His6 (pET21b), E. coli Rosetta (DE3), dimer
T2 sequence (B8GW30 whole entry Q35C/C297S): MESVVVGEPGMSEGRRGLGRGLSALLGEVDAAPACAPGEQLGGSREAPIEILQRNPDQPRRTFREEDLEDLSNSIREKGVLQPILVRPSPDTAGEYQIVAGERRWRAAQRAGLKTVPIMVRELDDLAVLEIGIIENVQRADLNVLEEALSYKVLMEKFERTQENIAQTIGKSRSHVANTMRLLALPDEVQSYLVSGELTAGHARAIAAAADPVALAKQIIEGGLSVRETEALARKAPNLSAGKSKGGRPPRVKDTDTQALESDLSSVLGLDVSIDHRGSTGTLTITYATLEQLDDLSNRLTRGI
The data set is described as follows: BMOE cross-linking of N-terminal domains, SDS-PAGE. Type of data set: binding. The following applies: 1 mM CTP, 10 uM ParB, no parS DNA, Mg2+, pH 7.4, room temperature.

The target of a further data set is T3, Zymomonas mobilis ParB (Zymomonas mobilis, UniProt F8ETX3).
T3 construct: N-terminal His6-MBP (TEV) tag kept, E. coli Rosetta (DE3); chromosomal ParB
T3 sequence (F8ETX3 1-311): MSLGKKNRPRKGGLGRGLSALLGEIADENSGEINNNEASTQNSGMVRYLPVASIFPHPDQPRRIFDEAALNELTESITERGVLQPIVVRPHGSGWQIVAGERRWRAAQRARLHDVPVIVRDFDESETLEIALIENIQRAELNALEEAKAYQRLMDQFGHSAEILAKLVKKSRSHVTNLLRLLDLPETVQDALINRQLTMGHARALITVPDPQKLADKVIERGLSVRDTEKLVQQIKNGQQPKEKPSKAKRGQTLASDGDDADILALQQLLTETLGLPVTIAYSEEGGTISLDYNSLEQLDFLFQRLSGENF
The data set is described as follows: BLI, ParB accumulation on closed […] bp parS DNA. It counts as biochemical. The following applies: 0.01 mM CTP, 1 uM ParB, Mg2+, pH 8.0, 22 °C.

Data set [3] has as its target T4, Xanthomonas campestris ParB (Xanthomonas campestris, UniProt Q8P466).
T4 construct: N-terminal His6-MBP (TEV) tag kept, E. coli Rosetta (DE3); chromosomal ParB
T4 sequence (Q8P466 1-309): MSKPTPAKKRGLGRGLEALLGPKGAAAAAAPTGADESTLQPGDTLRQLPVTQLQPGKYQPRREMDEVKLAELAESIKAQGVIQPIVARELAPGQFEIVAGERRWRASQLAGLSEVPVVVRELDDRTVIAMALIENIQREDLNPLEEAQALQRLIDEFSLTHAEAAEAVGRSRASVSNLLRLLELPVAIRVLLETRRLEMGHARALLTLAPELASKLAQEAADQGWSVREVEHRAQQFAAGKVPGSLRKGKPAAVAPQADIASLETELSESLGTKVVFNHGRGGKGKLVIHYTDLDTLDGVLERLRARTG
The data set is described as follows: BLI, ParB accumulation on closed […] bp parS DNA. As to conditions: 0.01 mM CTP, 1 uM ParB, Mg2+, pH 8.0, 22 °C. Type of data set: biochemical. In general terms: BLI is a label-free optical method that tracks binding on a fibre tip over time.

The target of data set [4] is T5, Caulobacter ParB (Caulobacter vibrioides, UniProt B8GW30).
T5 construct: full-length, C-terminal His6 (pET21b), E. coli Rosetta (DE3), dimer
Nature of the data set: DRaCALA membrane-spotting with radiolabelled CTP. As to conditions: 22 bp parS DNA needed, Mg2+, pH 8.0, room temperature; labelled compound. Type of data set: binding.

Data set [5] has as its target T6, TetR (class B, from Tn10) (Escherichia coli, UniProt P04483).
T6 construct: C-terminal His6 (pET21b), E. coli Rosetta (DE3)
The data set is described as follows: BLI, release of TetR roadblock from tetO DNA. Type of data set: binding. The following applies: 3 uM ahTc, 1 uM TetR, 1 uM ParB, 1 mM CTP, 170 bp closed parS-tetO DNA, Mg2+, 22 °C.

The target of data set [6] is T7, Caulobacter ParB-His6 (WT) (Caulobacter crescentus, UniProt B8GW30 1-304).
T7 sequence: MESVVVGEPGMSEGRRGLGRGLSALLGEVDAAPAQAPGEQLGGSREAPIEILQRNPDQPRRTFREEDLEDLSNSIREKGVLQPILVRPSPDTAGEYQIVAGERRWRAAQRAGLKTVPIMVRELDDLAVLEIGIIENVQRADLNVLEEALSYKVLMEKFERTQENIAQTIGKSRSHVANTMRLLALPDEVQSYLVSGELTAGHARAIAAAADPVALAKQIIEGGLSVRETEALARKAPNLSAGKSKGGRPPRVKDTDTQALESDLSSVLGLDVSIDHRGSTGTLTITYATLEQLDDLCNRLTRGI
Nature of the data set: BLI; 1 mM CTP, Mg2+; BLI at 22 C: 100 mM Tris-HCl pH 8.0, 100 mM NaCl, 1 mM MgCl2, 0.005% Tween 20; 1 uM protein dimer. Pull-down: same buffer, room temperature, 5 min, 1 uM ParB, 1 mM NTP. As to conditions: protein: recombinant; tags: C-terminal His6; chain copies: 2; label: biotin at both 5' ends; blunt; both ends tethered (closed); polymerase may add 3' A.

In data set [7] the target is T7, Caulobacter ParB-His6 (WT). Nature of the data set: BLI; ParB-CTP prebound; dissociation in 1 mM CTP, Mg2+; BLI at 22 C: 100 mM Tris-HCl pH 8.0, 100 mM NaCl, 1 mM MgCl2, 0.005% Tween 20; 1 uM protein dimer. Pull-down: same buffer, room temperature, 5 min, 1 uM ParB, 1 mM NTP. As to conditions: protein: recombinant; tags: C-terminal His6; chain copies: 2; label: biotin at both 5' ends; blunt; both ends tethered (closed); polymerase may add 3' A.

For data set [8], the target named is T7, Caulobacter ParB-His6 (WT). Nature of the data set: BLI; 1 mM CTP, Mg2+ (no increase in response); BLI at 22 C: 100 mM Tris-HCl pH 8.0, 100 mM NaCl, 1 mM MgCl2, 0.005% Tween 20; 1 uM protein dimer. Pull-down: same buffer, room temperature, 5 min, 1 uM ParB, 1 mM NTP. The following applies: protein: recombinant; tags: C-terminal His6; chain copies: 2; label: biotin at both 5' ends; blunt; both ends tethered (closed); polymerase may add 3' A.

Data set [9] deals with T8, TetR-His6 (class B, from Tn10) (Tn10, UniProt P04483 1-207). The data set is described as follows: BLI; no NTP, Mg2+; BLI at 22 C: 100 mM Tris-HCl pH 8.0, 100 mM NaCl, 1 mM MgCl2, 0.005% Tween 20; 1 uM protein dimer. Pull-down: same buffer, room temperature, 5 min, 1 uM ParB, 1 mM NTP. The following applies: protein: recombinant; tags: C-terminal His6; chain copies: 2; label: 5' biotin on strand 1; blunt.
T8 sequence (P04483 whole entry): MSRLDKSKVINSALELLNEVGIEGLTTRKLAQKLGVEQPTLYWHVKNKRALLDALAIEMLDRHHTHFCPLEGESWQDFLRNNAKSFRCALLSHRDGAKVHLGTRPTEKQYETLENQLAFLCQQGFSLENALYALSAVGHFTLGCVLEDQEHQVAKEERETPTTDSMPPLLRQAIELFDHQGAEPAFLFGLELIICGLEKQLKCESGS

Data set [10] concerns the target T7, Caulobacter ParB-His6 (WT). Nature of the data set: BLI; 0.125-2 uM ParB, no NTP; BLI at 22 C: 100 mM Tris-HCl pH 8.0, 100 mM NaCl, 1 mM MgCl2, 0.005% Tween 20; 1 uM protein dimer. Pull-down: same buffer, room temperature, 5 min, 1 uM ParB, 1 mM NTP. The following applies: protein: recombinant; tags: C-terminal His6; chain copies: 2; label: 5' biotin on strand 1; blunt.

Data set [11] deals with T7, Caulobacter ParB-His6 (WT). Nature of the data set: BLI; 1 mM CTP (enhanced); BLI at 22 C: 100 mM Tris-HCl pH 8.0, 100 mM NaCl, 1 mM MgCl2, 0.005% Tween 20; 1 uM protein dimer. Pull-down: same buffer, room temperature, 5 min, 1 uM ParB, 1 mM NTP. The following applies: protein: recombinant; tags: C-terminal His6; chain copies: 2; label: biotin at both 5' ends; blunt; both ends tethered (closed); polymerase may add 3' A.

Data set [12] concerns the molecule itself. Nature of the data set: cross-linking; 10 µM ParB (Q35C C297S) ± 1 mM NTP (CTP, CTPγS or other NTPs) ± 0.5 µM 22 bp parS dsDNA in 10 mM Tris-HCl pH 7.4, 100 mM NaCl, 1 mM MgCl2, room temperature, 15 min or 1-30 min time course, then 1 mM BMOE; SDS-PAGE, InstantBlue stain.
The target of data set [13] is T7, Caulobacter ParB-His6 (WT). Nature of the data set: BLI; 1 mM CDP, Mg2+; BLI at 22 C: 100 mM Tris-HCl pH 8.0, 100 mM NaCl, 1 mM MgCl2, 0.005% Tween 20; 1 uM protein dimer. Pull-down: same buffer, room temperature, 5 min, 1 uM ParB, 1 mM NTP. The following applies: protein: recombinant; tags: C-terminal His6; chain copies: 2; label: 5' biotin on strand 1; blunt.
The target in data set [14] is T8, TetR-His6 (class B, from Tn10). The data set is described as follows: BLI; 0.125-2 uM TetR, no NTP; BLI at 22 C: 100 mM Tris-HCl pH 8.0, 100 mM NaCl, 1 mM MgCl2, 0.005% Tween 20; 1 uM protein dimer. Pull-down: same buffer, room temperature, 5 min, 1 uM ParB, 1 mM NTP. As to conditions: protein: recombinant; tags: C-terminal His6; chain copies: 2; label: 5' biotin on strand 1; blunt.

Residue numbers refer to the chain shown, from its start. Names may count otherwise.

T1 sequence (B8GW30 whole entry C297S): as the sequence (B8GW30 whole entry Q35C/C297S) above, with C35Q counted along it
T6 sequence (P04483 whole entry): as the sequence (P04483 whole entry) above

On to `Nc1ccn([C@@H]2O[C@H](COP(=O)(O)OP(=O)(O)OP(=O)(O)O)[C@@H](O)[C@H]2O)c(=O)n1` [CTP], for which the “BLI, ParB accumulation on closed 169 bp parS DNA” value is “Both ParB (C297S) and ParB (Q35C C297S) were competent at spreading” on Caulobacter ParB [1]; “CTP facilitates the association of eight ParB orthologs with DNA” at Zymomonas mobilis ParB; “CTP facilitates the association of eight ParB orthologs with DNA” in [3]. Moreover, the “BMOE cross-linking of N-terminal domains, SDS-PAGE” value at Caulobacter ParB [2] was “cross-linking of ParB (Q35C C297S) was also enhanced by CTP and CTPγS”. Also, the “DRaCALA membrane-spotting with radiolabelled CTP” value at Caulobacter ParB [4] is recorded as “Caulobacter ParB binds to radiolabeled CTP in the presence of parS DNA”.

With `Cc1c2c(c(O)c3c(O)cccc13)C(=O)[C@]1(O)C(=O)C(C(N)=O)=C(O)[C@@H](N(C)C)[C@@H]1C2` [Anhydrotetracycline], the “BLI, release of TetR roadblock from tetO DNA” value in [5] is given as “addition of anhydrotetracycline (ahTc), a negative effector of TetR”.

B1: 169 bp parS closed DNA (dsDNA)
DNA 1: CGCCAGGGTTTTCCCAGTCACGACGTTGTAAAACGACGGCCAGTGAATTCGAGCTCGGTACCCGCAGGAGGACGTAGGGTAGGGGGATGTTTCACGTGAAACAGGGGATCCTCTAGAGTCGACCTGCAGGCATGCAAGCTTGGCGTAATCATGGTCATAGCTGTTTCCT
DNA 2: AGGAAACAGCTATGACCATGATTACGCCAAGCTTGCATGCCTGCAGGTCGACTCTAGAGGATCCCCTGTTTCACGTGAAACATCCCCCTACCCTACGTCCTCCTGCGGGTACCGAGCTCGAATTCACTGGCCGTCGTTTTACAACGTCGTGACTGGGAAAACCCTGGCG
With B1, the binding signal in [6] is ~12 fold BLI response vs no NTP; in data set [7], ~5 fold slower dissociation vs buffer without CTP.

B2: 169 bp scrambled parS closed DNA (dsDNA)
DNA 1: B1 DNA 1 with T88A, G89A, T92A, G96T, T97G, G98A, A99G, A100T, A101T, C102T
DNA 2: B1 DNA 2 with G68A, T69A, T70A, T71C, C72T, A73C, C74A, A78T, C81T, A82T
As to B2, the binding result in [8] is given as “no binding”.

B3: 28 bp tetO (dsDNA)
DNA 1: GGGGACTCTATCATTGATAGAGTATGC
DNA 2: GCATACTCTATCAATGATAGAGTCCCC
In the case of B3, the binding result is reported as “binds” in data set [9] and “no binding” in data set [10].

B4: 170 bp parS-tetO closed DNA (dsDNA)
DNA 1: CGCCAGGGTTTTCCCAGTCACGACGTTGTAAAACGACGGCCAGAATTCGCAACGTGTGTTTCACGTGAAACAGCCTTGAACTGATAACGACTCTATCATTGATAGAGTGTTCTCTCCACGGGATCCCCAGGCATGCAAGCTTGGCGTAATCATGGTCATAGCTGTTTCCT
DNA 2: AGGAAACAGCTATGACCATGATTACGCCAAGCTTGCATGCCTGGGGATCCCGTGGAGAGAACACTCTATCAATGATAGAGTCGTTATCAGTTCAAGGCTGTTTCACGTGAAACACACGTTGCGAATTCTGGCCGTCGTTTTACAACGTCGTGACTGGGAAAACCCTGGCG
As for B4, the binding result in data set [11] is “binds”.

B5: Caulobacter ParB-His6 (Q35C C297S) (natural protein, Caulobacter crescentus, UniProt P0CAV8 1-304, looked up)
chain: T7 sequence with Q35C, C297S
notes: ParB, chromosome partitioning protein of Caulobacter crescentus; the cross-link reports engagement of the N-terminal domains of two subunits; The lone native cysteine C297 was changed to serine and Q35C was engineered in the N-terminal domain; Cloning in pET21b may add linker residues before the His6 tag (surmised); also called ParB (Q35C C297S); ParB (C297S Q35C); not shown: His6, C-terminal, …
For the molecule B5, the binding result in data set [12] is “binds”.

B6: 20 bp parS (dsDNA)
DNA 1: GGGATGTTTCACGTGAAACA
DNA 2: TGTTTCACGTGAAACATCCC
As to B6, the binding result is given as “binds” in data set [13] and “no binding” in data set [14].
